Reference: the supplement of paper PMC9876800

Tested on: peptide library, one residue held at a place counted from the S/T acceptor
Experiment: relative phosphorylation of the sub-library (ratio to the mean residue at this position); higher = residue favoured
Details: human
In short: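 Relative sub-library phosphorylation, a ratio to the mean residue at that position, was obtained by phosphorimaging and densitometry of spots on streptavidin membranes. Before capture, purified recombinant kinases were incubated for 90 min under kinase-specific conditions with 50 μM biotinylated degenerate peptide sub-libraries and 50 μM ATP spiked with γ-32P-ATP. Each sub-library fixed one residue at one position around a central Ser/Thr.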

Chain of MARK3, construct: Full length (P27448 whole entry, looked up): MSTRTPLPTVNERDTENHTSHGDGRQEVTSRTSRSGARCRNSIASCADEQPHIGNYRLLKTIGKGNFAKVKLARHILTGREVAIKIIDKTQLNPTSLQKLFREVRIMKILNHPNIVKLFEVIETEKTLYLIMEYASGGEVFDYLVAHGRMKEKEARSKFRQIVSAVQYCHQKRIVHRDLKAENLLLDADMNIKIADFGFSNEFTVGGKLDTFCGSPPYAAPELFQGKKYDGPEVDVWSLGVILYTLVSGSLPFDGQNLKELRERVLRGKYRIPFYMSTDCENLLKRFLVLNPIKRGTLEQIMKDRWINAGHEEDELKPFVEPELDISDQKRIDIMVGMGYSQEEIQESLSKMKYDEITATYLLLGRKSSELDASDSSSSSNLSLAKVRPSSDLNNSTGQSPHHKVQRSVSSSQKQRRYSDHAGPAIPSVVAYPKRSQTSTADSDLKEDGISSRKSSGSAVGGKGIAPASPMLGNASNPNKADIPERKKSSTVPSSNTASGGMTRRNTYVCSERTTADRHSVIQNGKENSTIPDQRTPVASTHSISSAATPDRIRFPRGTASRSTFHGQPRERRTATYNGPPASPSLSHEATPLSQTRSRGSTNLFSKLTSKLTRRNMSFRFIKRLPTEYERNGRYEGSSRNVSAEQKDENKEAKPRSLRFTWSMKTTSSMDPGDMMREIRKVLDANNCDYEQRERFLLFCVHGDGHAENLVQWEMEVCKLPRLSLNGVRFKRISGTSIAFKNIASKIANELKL
Chain of TLK1, construct: Full length (Q9UKI8 whole entry, looked up): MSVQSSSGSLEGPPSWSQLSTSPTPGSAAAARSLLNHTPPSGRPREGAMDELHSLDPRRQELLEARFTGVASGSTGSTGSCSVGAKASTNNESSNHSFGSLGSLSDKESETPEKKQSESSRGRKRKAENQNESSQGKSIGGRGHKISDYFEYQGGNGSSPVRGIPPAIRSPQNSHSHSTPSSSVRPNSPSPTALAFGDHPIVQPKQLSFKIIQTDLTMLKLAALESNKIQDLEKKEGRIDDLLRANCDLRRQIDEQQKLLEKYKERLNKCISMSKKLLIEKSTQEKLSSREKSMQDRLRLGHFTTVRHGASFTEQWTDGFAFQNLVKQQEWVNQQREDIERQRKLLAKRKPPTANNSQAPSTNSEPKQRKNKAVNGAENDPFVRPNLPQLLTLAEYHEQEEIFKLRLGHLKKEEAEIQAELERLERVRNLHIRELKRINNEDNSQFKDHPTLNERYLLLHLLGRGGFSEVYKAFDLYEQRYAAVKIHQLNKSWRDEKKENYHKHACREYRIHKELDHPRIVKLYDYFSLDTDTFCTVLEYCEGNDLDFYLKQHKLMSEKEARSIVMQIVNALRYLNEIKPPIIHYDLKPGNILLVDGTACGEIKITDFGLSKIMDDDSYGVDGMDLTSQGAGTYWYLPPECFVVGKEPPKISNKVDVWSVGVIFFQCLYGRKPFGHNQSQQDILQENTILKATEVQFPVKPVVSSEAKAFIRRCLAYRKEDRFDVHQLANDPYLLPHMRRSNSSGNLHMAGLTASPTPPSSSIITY
Chain of PHKG2, construct: aa6-293 (P15735 6-293, looked up): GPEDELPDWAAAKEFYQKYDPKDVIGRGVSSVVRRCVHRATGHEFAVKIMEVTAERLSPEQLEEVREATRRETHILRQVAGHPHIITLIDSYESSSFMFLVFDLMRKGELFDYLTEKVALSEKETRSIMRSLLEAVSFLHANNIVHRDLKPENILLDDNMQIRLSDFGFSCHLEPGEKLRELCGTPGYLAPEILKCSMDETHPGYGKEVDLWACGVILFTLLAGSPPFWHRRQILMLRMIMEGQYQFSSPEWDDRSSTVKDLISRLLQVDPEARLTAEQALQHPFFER
Chain of MINK1, construct: aa1-320 (Q8N4C8 1-320, looked up): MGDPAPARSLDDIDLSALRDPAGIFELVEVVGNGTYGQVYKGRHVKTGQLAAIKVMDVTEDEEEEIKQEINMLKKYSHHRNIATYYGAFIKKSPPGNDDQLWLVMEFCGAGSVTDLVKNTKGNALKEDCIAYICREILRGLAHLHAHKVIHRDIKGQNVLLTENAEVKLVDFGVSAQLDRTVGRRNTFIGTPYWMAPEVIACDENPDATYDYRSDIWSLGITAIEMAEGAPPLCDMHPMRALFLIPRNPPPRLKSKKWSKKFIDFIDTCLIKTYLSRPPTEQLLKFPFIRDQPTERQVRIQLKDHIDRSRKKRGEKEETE

MINK1, construct: aa1-320 (from UniProt Q8N4C8)
relative phosphorylation
Details	at +1	at +2	at +3	at +4	at -1	at -2	at -3	at -4	at -5
A fixed	0.635	0.904	0.864	0.99	0.952	1.11	1.02	1.08	1.28
D fixed	0.177	0.699	0.464	0.556	0.854	0.746	0.867	1	0.995
E fixed	0.187	0.749	0.405	0.574	0.536	0.498	0.818	0.891	0.801
F fixed	1.16	0.577	0.764	0.533	0.778	1.55	0.946	1.07	0.8
G fixed	0.708	1.09	0.959	1.28	1.69	1.19	1.19	1.19	1.2
H fixed	0.783	1.25	1.25	1.22	1.31	1.13	1.2	1.08	1.09
I fixed	1.91	0.664	0.726	0.983	0.385	0.769	0.784	0.793	0.894
K fixed	0.669	1.93	2.35	1.94	1.25	0.713	1.01	0.947	0.979
L fixed	2.89	0.776	0.869	0.75	0.926	0.789	0.829	0.78	0.73
M fixed	2.32	0.86	0.681	0.897	1.15	0.952	0.95	0.917	0.87
N fixed	0.677	0.937	0.721	1.04	1.49	1.03	1.26	1.03	1.09
P fixed	0.194	1.09	0.892	0.943	0.646	0.675	0.846	0.959	1.06
Q fixed	0.587	0.914	0.818	0.926	1.11	0.882	0.9	0.996	0.958
R fixed	0.65	2.39	2.76	1.74	1.4	0.821	1.15	0.971	1.19
V fixed	1.06	0.763	0.773	0.743	0.536	0.893	0.858	0.966	0.98
W fixed	1.45	0.591	0.928	1.07	0.822	1.38	1.28	1.18	0.978
Y fixed	0.94	0.815	0.778	0.818	1.17	1.87	1.09	1.15	1.1
pThr fixed	0.703	0.621	0.744	0.601	0.629	0.963	1.18	1.07	1.14
pTyr fixed	0.282	0.462	0.623	0.51	0.797	0.745	1.04	0.679	1.06

MARK3, construct: Full length (from UniProt P27448)
relative phosphorylation
Details	at +1	at +2	at +3	at +4	at -1	at -2	at -3	at -4	at -5
A fixed	0.634	0.761	0.599	0.335	1.09	2.23	0.806	1.19	1.16
D fixed	0.414	0.68	2.56	0.456	0.61	0.317	0.412	0.765	0.758
E fixed	0.82	0.902	0.95	0.319	0.605	0.263	0.458	0.703	0.72
F fixed	0.651	0.746	0.792	0.619	0.499	1.29	0.758	0.987	1.12
G fixed	0.542	0.47	0.559	0.385	2.52	1.37	0.687	1.32	1.03
H fixed	0.76	0.879	1.56	0.489	0.708	1.21	1.41	1.19	0.86
I fixed	1.14	0.863	0.486	2.82	0.441	0.444	0.497	0.565	0.817
K fixed	0.932	0.651	0.731	0.487	1.92	0.995	2.2	1.71	1.4
L fixed	1.25	1.16	0.782	5.82	0.654	0.392	0.6	0.642	1.49
M fixed	2.38	0.994	0.708	1.22	0.75	0.571	0.772	0.833	1.06
N fixed	1.26	0.998	3.05	0.526	1.06	0.583	0.682	0.916	0.627
P fixed	0.337	0.826	0.2	0.348	1.37	0.546	0.925	1.13	0.964
Q fixed	1.62	0.955	0.929	0.473	1.19	0.488	0.736	0.808	0.722
R fixed	1.45	0.708	0.706	0.349	1.66	0.969	3.51	1.52	1.45
V fixed	1.23	0.898	0.488	1.33	0.707	0.628	0.524	0.673	0.824
W fixed	0.75	3.62	0.927	0.557	0.585	3.05	1.19	1.19	1.08
Y fixed	0.831	0.888	0.969	0.461	0.633	1.65	0.83	0.856	0.915
pThr fixed	1.49	1.34	0.404	0.369	0.348	0.44	0.553	0.726	0.573
pTyr fixed	0.705	0.679	0.944	0.328	0.841	0.64	0.855	0.686	0.735

PHKG2, construct: aa6-293 (from UniProt P15735)
relative phosphorylation
Details	at +1	at +2	at +3	at +4	at -1	at -2	at -3	at -4	at -5
A fixed	0.436	0.632	0.881	0.674	0.927	0.973	0.741	0.731	0.93
D fixed	0.155	0.214	0.222	0.297	0.609	0.353	0.242	0.326	0.364
E fixed	0.198	0.157	0.301	0.246	0.389	0.466	0.3	0.561	0.38
F fixed	2.96	1.28	1.04	1.21	1.07	0.891	0.368	0.797	1.1
G fixed	0.369	0.579	0.828	0.774	0.977	0.985	0.578	0.833	0.768
H fixed	0.681	1.43	1.12	0.916	0.871	0.867	0.899	1.15	0.999
I fixed	1.63	0.694	0.929	0.743	0.772	0.711	0.562	1.19	1.16
K fixed	0.664	2.43	1.79	1.95	1.84	1.5	3.76	1.84	1.73
L fixed	1.72	0.642	0.976	1.06	0.888	0.853	0.454	0.991	1.26
M fixed	1.77	0.757	0.974	0.885	0.987	1.12	0.576	1.13	0.958
N fixed	0.403	0.694	0.792	0.753	1.15	1.13	0.538	0.849	0.761
P fixed	0.107	0.267	0.616	0.556	1.11	0.528	0.422	0.587	0.706
Q fixed	0.593	0.601	0.851	1.02	0.917	1.72	0.77	0.878	0.776
R fixed	0.997	3.32	2.61	2.71	1.84	2.48	5.1	1.98	1.85
V fixed	0.896	0.574	0.856	0.719	0.9	0.778	0.477	0.922	1.15
W fixed	2.03	1.56	1.2	1.48	0.751	0.861	0.556	0.996	0.926
Y fixed	1.4	1.16	1.01	1.01	0.998	0.795	0.663	1.23	1.19
pThr fixed	0.353	0.302	0.378	0.285	0.558	0.0668	0.449	0.505	0.678
pTyr fixed	0.404	0.369	0.462	0.307	0.755	0.637	0.517	0.746	0.63

TLK1, construct: Full length (from UniProt Q9UKI8)
relative phosphorylation
Details	at +1	at +2	at +3	at +4	at -1	at -2	at -3	at -4	at -5
A fixed	0.502	0.943	1.34	0.901	1.02	1.28	1.23	0.986	0.846
D fixed	0.279	1.17	0.745	0.602	2.36	3.12	2.28	1.26	0.993
E fixed	0.353	0.499	0.939	0.52	1.98	3.77	1.44	1.01	0.812
F fixed	0.586	1.4	1.32	1.77	0.517	0.384	0.887	1.51	1.46
G fixed	0.296	0.832	1.13	0.978	0.518	0.875	0.741	0.765	0.693
H fixed	0.917	1.63	1.06	0.957	1.08	0.843	1.14	1.12	0.909
I fixed	1.06	0.658	0.707	0.968	0.717	0.384	0.688	1.24	1.06
K fixed	0.848	0.636	0.646	0.891	1.02	0.512	0.856	0.757	0.952
L fixed	1.49	1.02	0.72	1.02	0.887	0.371	0.679	0.984	0.936
M fixed	2.43	1.6	0.993	0.964	0.751	0.588	0.907	0.896	0.826
N fixed	1.66	0.582	0.636	0.674	1.44	1.35	1.09	0.598	0.609
P fixed	0.217	0.821	1.29	1.38	0.364	0.484	0.856	0.554	0.897
Q fixed	2.14	0.964	0.808	0.722	0.808	1.11	0.775	0.871	0.697
R fixed	1.98	0.664	0.848	0.815	1.27	0.504	1.01	0.795	1.32
V fixed	0.996	0.569	0.809	0.81	0.789	0.497	0.659	1.21	1.16
W fixed	0.669	2.09	1.6	1.77	0.633	0.46	0.836	1.26	1.43
Y fixed	0.577	0.931	1.41	1.26	0.831	0.47	0.932	1.2	1.41
pThr fixed	0.472	0.804	0.79	0.807	0.694	1.76	1.85	1.18	0.601
pTyr fixed	0.518	1.39	1.48	1.08	1.61	2.32	1.4	1.55	1.68
